Our source for the Kd, koff and kon values is patent US20190367592A1.

B1: hu37D3.v28.A4 (antibody, V domains shown)
VH: EVQLVESGGGLVQPGGSLRLSCAASGLIFRSYGMSWVRQAPGKGLEWVATINSGGTYTYYPDSVKGRFTISRDNSKNTLYLQMNSLRAEDTAVYYCANSYSGAMDYWGQGTLVTVSS
VL: DDVLTQTPLSLPVTPGQPASISCRSSQSIVHSNGNTYLEWYLQKPGQSPQLLIYKVSNRFSGVPDRFSGSGSGTDFTLKISRVEAEDVGVYYCFQGSLVPWTFGQGTKVEIK
B2: hu37D3-H9.v1 (antibody, V domains shown)
VH: EVQLVESGGGLVQPGGSLRLSCAASGLIFRSYGMSWVRQAPGKGLEWVATINSGGTYTYYPDSVKGRFTISRDNSKNTLYLQMNSLRAEDTAVYYCANSYSGAMDYWGQGTLVTVSS
VL: EDQLTQSPSSLSASVGDRVTITCRSSQSIVHSNGNTYFEWYQQKPGKSPKLLIYKVSNRFSGVPSRFSGSGSGTDFTLTISSLQPEDFATYYCFQGSLVPWTFGQGTKVEIK
B3: hu37D3-H9.v5 (antibody, V domains shown)
VH: EVQLVESGGGLVQPGGSLRLSCAASGLIFRSYGMSWVRQAPGKGLEWVATINSGGTYTYYPDSVKGRFTISRDNSKNTLYLQMNSLRAEDTAVYYCANSYSGAMDYWGQGTLVTVSS
VL: EDVLTQTPLSLPVTPGQPASISCRSSQSIVHSNGNTYFEWYLQKPGQSPQLLIYKVSNRFSGVPDRFSGSGSGTDFTLKISRVEAEDVGVYYCFQGSLVPWTFGQGTKVEIK

This assay has as its target monomeric cynomolgus monkey Tau (cynomolgus monkey). The assay is described as follows: SPR, hIgG captured, cyno Tau monomer analyte. A general note: Surface plasmon resonance follows binding to a sensor surface in real time, without labels.
As to B1, the Kd (in general, the free concentration of one partner at which half of the binding sites on the other are occupied at equilibrium, for simple one-to-one binding) stood at 0.7 nM; the koff (in general, the rate constant with which the complex falls apart) turned out to be 0.001 s⁻¹; the kon (in general, the second-order rate constant of association) was determined as 1.7e+06 M⁻¹ s⁻¹.

On to B2, for which the Kd came to 0.8 nM, the koff amounted to 0.001 s⁻¹ and the kon was determined as 2e+06 M⁻¹ s⁻¹.

For B3, the Kd was determined as 0.6 nM, the koff was determined as 0.001 s⁻¹ and the kon turned out to be 1.5e+06 M⁻¹ s⁻¹.
